Tests used:
[1] = biological target: MUC-1 mucin expressed on the surface of PHA activated human T-cells (human) (UniProt P15941); assay: cell-based or functional assay
[2] = biological target: Anti-human-MUC-1 mAb B27.29; assay: flow cytometry; soluble MUC-1 mucin (1 µg) inhibits B27.29 staining of 3 day PHA activated T-cells
[3] = biological target: Anti-human-MUC-1 mAb B27.29; assay: flow cytometry; soluble MUC-1 mucin (10 µg) inhibits B27.29 staining of 3 day PHA activated T-cells
[4] = biological target: Anti-human-MUC-1 mAb B27.29; assay: flow cytometry; soluble MUC-1 mucin (50 µg) inhibits B27.29 staining of 3 day PHA activated T-cells

Row | Effect on T-cell proliferation (% Inhibition) at 5 µg/ml [1] [%] | Effect on T-cell proliferation (% Inhibition) at 25 µg/ml [1] [%] | % inhibition of binding [2] [%] | % inhibition of binding [3] [%] | % inhibition of binding [4] [%] | Substance
1 | 58 | 82 | – | – | – | Anti-human-MUC-1 mAb B27.29 (antibody)
2 | – | – | 25 | 45 | 65 | soluble MUC-1 mucin (from UniProt P15941 24-1097)

Reference: patent publication US6602660
